These results are taken from US20160222105A1 (MacroGenics, published 2016).

The term EC50 (read off the curve) denotes the concentration at which the effect is half-maximal. By Kd is commonly meant the constant that tells how readily two partners part at equilibrium. As usually defined, the koff is a measure of how fast the partners let go of each other. Usually kon stands for a measure of how fast the partners come together.

For assay [1], the target named is T1, gpA33 on human cancer cells (human, UniProt Q99795 22-319).
T1 sequence (looked up): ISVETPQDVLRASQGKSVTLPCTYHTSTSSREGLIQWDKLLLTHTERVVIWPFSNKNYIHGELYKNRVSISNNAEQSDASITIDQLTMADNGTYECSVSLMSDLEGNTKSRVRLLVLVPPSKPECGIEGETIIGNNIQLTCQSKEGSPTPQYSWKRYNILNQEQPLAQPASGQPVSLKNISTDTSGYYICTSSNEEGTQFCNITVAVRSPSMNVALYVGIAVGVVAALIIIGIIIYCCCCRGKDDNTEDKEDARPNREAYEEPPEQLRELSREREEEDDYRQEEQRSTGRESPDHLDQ
The experiment in a line: cell-based or functional assay.

The target of a further assay is T2, soluble CD3 fragment (Homo sapiens (Human), UniProt P07766 23-127; P04234 22-101).
T2 construct: copies: 1 + 1
As to the kind of experiment: sandwich plate assay titled 'shCD3 capture/gpA33 detection': soluble CD3 immobilized, diabody titrated, bound diabody detected with gpA33; the signal needs binding to both CD3 and gpA33. On the procedure: The detection of binding was assessed by the capacity of immobilized antibodies to additionally bind gpA33.

Assay [2] addresses T3, soluble human gpA33 with 6His (human, UniProt Q99795 22-235).
T3 construct: range 1-235; Expressed in CHO-S cells; The stated range starts at residue 1 and so includes the signal peptide; also called hgpA33-His
T3 sequence: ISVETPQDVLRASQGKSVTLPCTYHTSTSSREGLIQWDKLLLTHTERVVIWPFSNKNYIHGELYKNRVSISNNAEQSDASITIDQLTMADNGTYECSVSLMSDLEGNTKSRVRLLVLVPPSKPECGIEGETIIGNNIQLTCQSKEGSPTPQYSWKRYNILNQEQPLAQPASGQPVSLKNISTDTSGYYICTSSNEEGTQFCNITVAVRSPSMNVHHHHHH
The experiment in a line: SPR (BIAcore 3000), captured gpA33-His, diabody as analyte, 1:1 Langmuir global fit.

The target of assay [3] is T4, soluble cynomolgus monkey gpA33 with 6His (cynomolgus monkey, UniProt G7NU40 17-329).
T4 construct: range 1-314; The range 1-314 is as printed; also called cynogpA33-His
T4 sequence: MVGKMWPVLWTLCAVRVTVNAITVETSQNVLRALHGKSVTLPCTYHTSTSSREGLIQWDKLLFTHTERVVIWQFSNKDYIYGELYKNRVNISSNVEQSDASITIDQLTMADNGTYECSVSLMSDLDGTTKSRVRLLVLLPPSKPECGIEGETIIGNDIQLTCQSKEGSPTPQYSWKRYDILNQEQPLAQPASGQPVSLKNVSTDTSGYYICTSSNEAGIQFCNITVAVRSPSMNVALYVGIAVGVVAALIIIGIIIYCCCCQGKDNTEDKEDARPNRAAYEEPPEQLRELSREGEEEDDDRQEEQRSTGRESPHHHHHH
The description is as above.

For assay [4], the target named is T5, soluble human CD3ε/CD3δ heterodimer (human).
T5 construct: Co-expressed in CHO-S cells; also called hCD3ε/δ
T5 chain 1: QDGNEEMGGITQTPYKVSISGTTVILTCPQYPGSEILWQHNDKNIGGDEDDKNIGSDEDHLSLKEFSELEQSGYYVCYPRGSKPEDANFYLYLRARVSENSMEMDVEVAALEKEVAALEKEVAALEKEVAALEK
T5 chain 2: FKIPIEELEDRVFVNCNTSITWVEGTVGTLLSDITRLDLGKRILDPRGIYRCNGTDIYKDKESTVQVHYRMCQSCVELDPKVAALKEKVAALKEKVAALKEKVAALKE
As to the kind of experiment: SPR (BIAcore 3000), CD3 immobilized on CM5 chip, diabody as analyte, 1:1 Langmuir global fit. On the procedure:
(§1) gpA33×CD3 bi-specific Fc diabody (DART-2 w/Fc Version 1) binding to soluble versions of human and cynomolgus monkey CD3 receptor was analyzed by SPR on a BIAcore 3000 biosensor (GE, Healthcare). Receptors were immobilized on the CM5 sensor chip according to the procedure recommended by the manufacturer. Briefly, the carboxyl groups on the sensor chip surface were activated with an injection of a solution containing 0.2M N-ethyl-N-(3dietylamino-propyl) carbodiimide and 0.05M N-hydroxy-succinimide. Soluble CD3 receptor (1 μg/ml) was then injected over the activated CM5 surface in 10 mM sodium-acetate, pH 5.0, at flow rate 5 μL/min, followed by 1 M ethanolamine for deactivation.
(§2) Binding experiments were performed in HBS-EP buffer, which contains 10 mM HEPES, pH 7.4, 150 mM NaCl, 3 mM EDTA and 0.005% P20 surfactant. Binding of DART-2 w/Fc Version 1 was analyzed (in duplicate) at concentrations of 0, 6.25, 12.5, 25, 50 and 100 nM, injected for 120 sec at a flow rate of 30 μL/min.
(§3) Regeneration of the immobilized receptor surfaces was performed by pulse injection of 10 mM glycine, pH 1.5. Reference curves were obtained by injection of each dilution of DART-2 w/Fc over the treated surface with no immobilized protein. Binding curves at zero concentration were subtracted as a blank. KD values were determined by a global fit of binding curves to the Langmuir 1:1 binding model (BIAevaluation™ software v4.1).
In general terms: Surface plasmon resonance follows binding to a sensor surface in real time, without labels.

Assay [5] addresses T6, soluble cynomolgus monkey CD3ε/CD3δ heterodimer (cynomolgus monkey).
T6 construct: Co-expressed in CHO-S cells; also called cynoCD3ε/δ
T6 chain 1: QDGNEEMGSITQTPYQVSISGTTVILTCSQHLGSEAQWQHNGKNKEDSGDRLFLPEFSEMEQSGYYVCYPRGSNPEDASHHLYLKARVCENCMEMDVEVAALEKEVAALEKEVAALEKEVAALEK
T6 chain 2: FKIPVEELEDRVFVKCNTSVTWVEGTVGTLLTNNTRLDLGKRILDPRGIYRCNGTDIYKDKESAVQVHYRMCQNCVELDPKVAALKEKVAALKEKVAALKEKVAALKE
Described as above. On the procedure:
as §1, §2, §3

A further assay has as its target T7, human gpA33 (human, UniProt Q99795 22-235, limits assumed).
T7 construct: There it is printed only as gpA33; also called A33 antigen
T7 sequence (looked up): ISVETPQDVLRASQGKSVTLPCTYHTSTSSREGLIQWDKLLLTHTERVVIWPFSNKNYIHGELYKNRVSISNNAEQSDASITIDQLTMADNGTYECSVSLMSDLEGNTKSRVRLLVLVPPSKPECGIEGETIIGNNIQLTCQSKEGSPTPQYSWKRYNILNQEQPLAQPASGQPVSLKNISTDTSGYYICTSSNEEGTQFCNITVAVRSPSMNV
As to the kind of experiment: simultaneous-binding assay; group statement.

B1: gpA33 × CD3 bi-specific monovalent diabody (DART-1) (bispecific antibody)
chain 1: QAVVTQEPSLTVSPGGTVTLTCRSSTGAVTTSNYANWVQQKPGQAPRGLIGGTNKRAPWTPARFSGSLLGGKAALTITGAQAEDEADYYCALWYSNLWVFGGGTKLTVLGGGGSGGGGQVQLQQSGPELVKPGASVKISCKASGYTFSGSWMNWVKQRPGQGLEWIGRIYPGDGETNYNGKFKDKATLTADKSSTTAYMELSSLTSVDSAVYFCARIYGNNVYFDVWGAGTTVTVSSGGCGGGEVAALEKEVAALEKEVAALEKEVAALEK
chain 2: QIVLTQSPAIMSASPGERVTMTCSARSSISFMYWYQQKPGSSPRLLIYDTSNLASGVPVRFSGSGSGTSYSLTISRMEAEDAATYYCQQWSSYPLTFGSGTKLELKRGGGSGGGGEVQLVESGGGLVQPGGSLRLSCAASGFTFNTYAMNWVRQAPGKGLEWVARIRSKYNNYATYYADSVKDRFTISRDDSKNSLYLQMNSLKTEDTAVYYCVRHGNFGNSYVSWFAYWGQGTLVTVSSGGCGGGKVAALKEKVAALKEKVAALKEKVAALKE
notes: Disulfide-bonded heterodimer with murine anti-gpA33 variable domains; also called gpA33 × CD3 DART 1
Turning to B1, in assay [1], the “EC50 of redirected killing, ASPC-1 cells, E:T 10:1” value was 1.14 ng/mL; the “EC50 of redirected killing, Colo205 cells, E:T 10:1” value came out at 0.585 ng/mL; the “EC50 of redirected killing, Colon CSLC cells, human PBMC E:T 25:1” value was 0.901 ng/mL. Moreover, the “EC50 (read off the curve)” value in the assay with soluble CD3 fragment was around 200 ng/mL.

B2: gpA33 × CD3 bi-specific monovalent diabody having an IgG Fc Domain version 1 (DART-2 w/Fc Version 1) (bispecific antibody)
chain 1: DIQLTQSPSFLSASVGDRVTITCSARSSISFMYWYQQKPGKAPKLLIYDTSNLASGVPSRFSGSGSGTEFTLTISSLEAEDAATYYCQQWSSYPLTFGQGTKLEIKGGGSGGGGEVQLVESGGGLVQPGGSLRLSCAASGFTFSTYAMNWVRQAPGKGLEWVGRIRSKYNNYATYYADSVKDRFTISRDDSKNSLYLQMNSLKTEDTAVYYCVRHGNFGNSYVSWFAYWGQGTLVTVSSGGCGGGEVAALEKEVAALEKEVAALEKEVAALEKGGGDKTHTCPPCPAPEAAGGPSVFLFPPKPKDTLMISRTPEVTCVVVDVSHEDPEVKFNWYVDGVEVHNAKTKPREEQYNSTYRVVSVLTVLHQDWLNGKEYKCKVSNKALPAPIEKTISKAKGQPREPQVYTLPPSREEMTKNQVSLWCLVKGFYPSDIAVEWESNGQPENNYKTTPPVLDSDGSFFLYSKLTVDKSRWQQGNVFSCSVMHEALHNHYTQKSLSLSPGK
chain 2: QAVVTQEPSLTVSPGGTVTLTCRSSTGAVTTSNYANWVQQKPGQAPRGLIGGTNKRAPWTPARFSGSLLGGKAALTITGAQAEDEADYYCALWYSNLWVFGGGTKLTVLGGGGSGGGGQVQLVQSGAEVKKPGASVKVSCKASGYTFTGSWMNWVRQAPGQGLEWIGRIYPGDGETNYNGKFKDRVTITADKSTSTAYMELSSLRSEDTAVYYCARIYGNNVYFDVWGQGTTVTVSSGGCGGGKVAALKEKVAALKEKVAALKEKVAALKE
chain 3: not shown
notes: also called DART-2 with Fc
Turning to B2, the Kd in assay [2] is 2.2 nM; in assay [3], 12 nM; in assay [4], 23 nM; in assay [5] it was 26 nM. The koff in assay [2] came out at 0.0009 s⁻¹; in assay [3], 0.0028 s⁻¹; in assay [4] it was 0.0035 s⁻¹; in assay [5], 0.0034 s⁻¹. Further, the kon worked out at 420000 M⁻¹ s⁻¹ in assay [2], 230000 M⁻¹ s⁻¹ in assay [3], 150000 M⁻¹ s⁻¹ in assay [4] and 130000 M⁻¹ s⁻¹ in assay [5].

B3: gpA33 × CD3 bi-specific monovalent diabody having an IgG Fc Domain version 2 (DART-2 w/Fc Version 2) (bispecific antibody)
chain 1: DKTHTCPPCPAPEAAGGPSVFLFPPKPKDTLMISRTPEVTCVVVDVSHEDPEVKFNWYVDGVEVHNAKTKPREEQYNSTYRVVSVLTVLHQDWLNGKEYKCKVSNKALPAPIEKTISKAKGQPREPQVYTLPPSREEMTKNQVSLWCLVKGFYPSDIAVEWESNGQPENNYKTTPPVLDSDGSFFLYSKLTVDKSRWQQGNVFSCSVMHEALHNHYTQKSLSLSPGKAPSSSPMEDIQLTQSPSFLSASVGDRVTITCSARSSISFMYWYQQKPGKAPKLLIYDTSNLASGVPSRFSGSGSGTEFTLTISSLEAEDAATYYCQQWSSYPLTFGQGTKLEIKGGGSGGGGEVQLVESGGGLVQPGGSLRLSCAASGFTFSTYAMNWVRQAPGKGLEWVGRIRSKYNNYATYYADSVKDRFTISRDDSKNSLYLQMNSLKTEDTAVYYCVRHGNFGNSYVSWFAYWGQGTLVTVSSGGCGGGKVAALKEKVAALKEKVAALKEKVAALKE
chain 2: QAVVTQEPSLTVSPGGTVTLTCRSSTGAVTTSNYANWVQQKPGQAPRGLIGGTNKRAPWTPARFSGSLLGGKAALTITGAQAEDEADYYCALWYSNLWVFGGGTKLTVLGGGGSGGGGQVQLVQSGAEVKKPGASVKVSCKASGYTFTGSWMNWVRQAPGQGLEWIGRIYPGDGETNYNGKFKDRVTITADKSTSTAYMELSSLRSEDTAVYYCARIYGNNVYFDVWGQGTTVTVSSGGCGGGEVAALEKEVAALEKEVAALEKEVAALEK
chain 3: not shown
Regarding B3, the binding result in the assay with human gpA33 is listed as “binds”.
